# Measurements from patent publication US20140271603.
# T1: recombinant human factor H, Y402 variant, produced in the HEK 293F cell line
# T1 chain: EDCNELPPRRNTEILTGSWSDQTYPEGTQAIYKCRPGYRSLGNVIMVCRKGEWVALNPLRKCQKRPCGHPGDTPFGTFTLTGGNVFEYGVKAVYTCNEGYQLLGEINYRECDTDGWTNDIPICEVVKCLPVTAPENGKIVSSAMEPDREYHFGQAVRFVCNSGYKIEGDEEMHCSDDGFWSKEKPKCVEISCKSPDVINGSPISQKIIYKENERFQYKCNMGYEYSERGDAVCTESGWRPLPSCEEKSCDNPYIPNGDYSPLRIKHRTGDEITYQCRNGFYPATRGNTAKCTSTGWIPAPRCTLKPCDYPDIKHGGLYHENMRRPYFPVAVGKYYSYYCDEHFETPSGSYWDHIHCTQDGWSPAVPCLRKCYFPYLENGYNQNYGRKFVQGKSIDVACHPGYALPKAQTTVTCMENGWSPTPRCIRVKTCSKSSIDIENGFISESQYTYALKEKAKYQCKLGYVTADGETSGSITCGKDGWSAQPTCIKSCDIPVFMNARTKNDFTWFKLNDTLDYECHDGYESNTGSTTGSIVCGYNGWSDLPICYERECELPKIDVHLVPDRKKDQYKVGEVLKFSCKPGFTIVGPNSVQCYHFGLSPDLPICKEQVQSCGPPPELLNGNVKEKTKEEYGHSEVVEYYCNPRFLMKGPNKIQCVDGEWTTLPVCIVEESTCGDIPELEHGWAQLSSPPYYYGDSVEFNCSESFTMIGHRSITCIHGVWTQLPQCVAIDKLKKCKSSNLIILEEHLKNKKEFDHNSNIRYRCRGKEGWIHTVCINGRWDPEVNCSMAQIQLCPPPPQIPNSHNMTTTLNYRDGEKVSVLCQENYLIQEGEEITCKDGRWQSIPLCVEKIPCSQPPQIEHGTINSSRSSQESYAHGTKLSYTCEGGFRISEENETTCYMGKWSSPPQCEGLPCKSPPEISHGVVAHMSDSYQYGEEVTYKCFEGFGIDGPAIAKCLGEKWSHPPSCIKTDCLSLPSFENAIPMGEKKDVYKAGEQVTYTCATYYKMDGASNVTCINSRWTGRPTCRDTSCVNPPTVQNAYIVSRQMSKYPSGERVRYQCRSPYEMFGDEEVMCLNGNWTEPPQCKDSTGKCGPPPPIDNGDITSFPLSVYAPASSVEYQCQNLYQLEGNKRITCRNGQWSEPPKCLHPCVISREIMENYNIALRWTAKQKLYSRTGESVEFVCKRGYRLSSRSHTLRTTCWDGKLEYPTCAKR
# T2: recombinant human factor H, Y402 variant, produced in the PER.C6 cell line
# T2 chain: T1 chain
# B1: Factor I (protein)
# chain: KVTYTSQEDLVEKKCLAKKYTHLSCDKVFCQPWQRCIEGTCVCKLPYQCPKNGTAVCATNRRSFPTYCQQKSLECLHPGTKFLNNGTCTAEGKFSVSLKHGNTDSEGIVEVKLVDQDKTMFICKSSWSMREANVACLDLGFQQGADTQRRFKLSDLSINSTECLHVHCRGLETSLAECTFTKRRTMGYQDFADVVCYTQKADSPMDDFFQCVNGKYISQMKACDGINDCGDQSDELCCKACQGKGFHCKSGVCIPSQYQCNGEVDCITGEDEVGCAGFASVTQEETEILTADMDAERRRIKSLLPKLSCGVKNRMHIRRKRIVGGKRAQLGDLPWQVAIKDASGITCGGIYIGGCWILTAAHCLRASKTHRYQIWTTVVDWIHPDLKRIVIEYVDRIIFHENYNAGTYQNDIALIEMKKDGNKKDCELPRSIPACVPWSPYLFQPNDTCIVSGWGREKDNERVFSLQWGEVKLISNCSKFYGNRFYEKEMECAGTYDGSIDACKGDSGGPLVCMDANNVTYVWGVVSWGENCGKPEFPGVYTKVANYFDWISYHVGRPFISQYNV
# Columns and labels:
# [1] = target: T1, recombinant human factor H, Y402 …
# [2] = target: T2, recombinant human factor H, Y402 …
# [3] = target: purified human plasma factor H (batch LFB), P08603
protein,measurement,setting,value
B1,"cofactor activity of Factor I (liquid-phase cleavage of the C3b α′ chain, SDS-PAGE)",[1],the recombinant FHs produced by the PER.C6 and HEK 293F lines have a similar cofactor activity of FI and that this activity is comparable to that of the human plasma FH
same,"cofactor activity of Factor I (liquid-phase cleavage of the C3b α′ chain, SDS-PAGE)",[2],the recombinant FHs produced by the PER.C6 and HEK 293F lines have a similar cofactor activity of FI and that this activity is comparable to that of the human plasma FH
same,"cofactor activity of Factor I (liquid-phase cleavage of the C3b α′ chain, SDS-PAGE)",[3],this activity is comparable to that of the human plasma FH
